± gives the uncertainty stated by the source.
Test: self-splicing fitness, log relative to wild type (ln ratio); higher = more splicing; Tetrahymena group I intron in knt gene, E. coli kanamycin selection, DiMSum; sequences stand for … in CUCUCU…GGAGGGAAAAGUUAUCAGGCAUGCACCUGGUAGCUAGUCUUUAAACCAAUAGAUUGCAUCGGUUUAAAAGGCAAGACCGUCAAAUUGCGGGAAAGGGGUCAACAGCCGUUCAGUACCAAGUCUCAGGGGAAACUUUGAGAUGGCCUUGCAAAGGGUAUGGUAAUAAGCUGACGGACAUGGUCCUAACCACGCAGCCAAGUCCUAAGUCAACAGAUCUUCUGUUGAUAUGGAUGCAGUUCACAGACUAAAUGUCGGUCGGGGAAGAUGUAUUCUUCUCAUAAGAUAUAGUCGGACCUCUCCUUAAUGGGAGCUAGCGGAUGAAGUGAUGCAACACUGGAGCCGCUGGGAACUAAUUUGUAUGCGAAAGUAUAUUGAUUAGUUUUGGAGUACUCGUGGUCG
Method in brief: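 A randomised library covering all eight P1ex-region intron nucleotides was built with the intron in the knt kanamycin-resistance gene on pET-22b(+) and held in E. coli BL21(DE3). Cells were grown overnight at 37°C or 30°C on LB agar, with or without 25 μg/mL kanamycin, plus 100 μg/mL carbenicillin, 50 μM IPTG and 0.2% rhamnose, and pooled colonies were amplicon-sequenced on an Illumina HiSeq 2500. DiMSum fitness is the error-weighted combination of wild-type-normalised replicate fold changes, kanamycin versus none.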

Row | Sequence | self-splicing fitness (ln) (30 °C) | self-splicing fitness (ln) (37 °C)
1 | AGCAAGCAAUAUUACGUAUG | -3.61 ± 0.14 | -3.29 ± 0.18
2 | AGCAAGCAAUAUUACGUCAG | -2.89 ± 0.16 | -1.55 ± 0.18
3 | AGCAAGCAAUAUUACGUCAU | -1.5 ± 0.078 | -1.23 ± 0.084
4 | AGCAAGCAAUAUUACGUCCU | 0.639 ± 0.099 | 0.541 ± 0.11
5 | AGCAAGCAAUAUUACGUCGA | -1.99 ± 0.11 | -0.323 ± 0.097
6 | AGCAAGCAAUAUUACGUUCA | -0.99 ± 0.081 | -0.464 ± 0.1
7 | AGCAAGCAAUAUUACGUUUU | -2.46 ± 0.077 | -1.71 ± 0.09
8 | AGCCAGCAAUAUUACGAAAC | -3.51 ± 0.48 | -1.38 ± 0.26
9 | AGCCAGCAAUAUUACGAAGG | -3.89 ± 0.41 | -2.92 ± 0.31
10 | AGCCAGCAAUAUUACGACGG | -4.18 ± 0.42 | -1.35 ± 0.25
11 | AGCCAGCAAUAUUACGAGCC |  | -0.75 ± 0.32
12 | AGCCAGCAAUAUUACGCAAA | -2.91 ± 0.34 | -2.36 ± 0.2
13 | AGCCAGCAAUAUUACGCAGG | -3.44 ± 0.14 | -2.62 ± 0.18
14 | AGCCAGCAAUAUUACGCAUG | -2.87 ± 0.11 | -2.2 ± 0.12
15 | AGCCAGCAAUAUUACGCGAU | -1.24 ± 0.14 | -2.93 ± 0.32
16 | AGCCAGCAAUAUUACGCGUA | -1.99 ± 0.13 | -1.44 ± 0.14
17 | AGCCAGCAAUAUUACGGAGU | -2.69 ± 0.19 | -1.66 ± 0.14
18 | AGCCAGCAAUAUUACGGGGC | -3.88 ± 0.15 | -3.13 ± 0.14
19 | AGCCAGCAAUAUUACGUCCU | -0.436 ± 0.071 | 0.142 ± 0.078
20 | AGCCAGCAAUAUUACGUCGU | -1.75 ± 0.072 | -1.58 ± 0.086
21 | AGCCAGCAAUAUUACGUGCG | -0.906 ± 0.077 | -0.256 ± 0.087
22 | AGCGAGCAAUAUUACGAACA | -2.63 ± 0.23 | -1.89 ± 0.2
23 | AGCGAGCAAUAUUACGACGA | -1.13 ± 0.22 | -2.2 ± 0.31
24 | AGCGAGCAAUAUUACGAUAA |  | -2.17 ± 0.24
25 | AGCGAGCAAUAUUACGAUAC | -3.47 ± 0.47 | -2.29 ± 0.39
26 | AGCGAGCAAUAUUACGAUAG | -3.64 ± 0.43 | -1.76 ± 0.35

Row | Sequence | self-splicing fitness (ln) (30 °C) | self-splicing fitness (ln) (37 °C)
27 | AGCGAGCAAUAUUACGAUAU | -4.12 ± 0.29 | -1.99 ± 0.19
28 | AGCGAGCAAUAUUACGAUUC | -1.93 ± 0.16 | -2.02 ± 0.27
29 | AGCGAGCAAUAUUACGAUUG | -4.39 ± 0.42 | -1.52 ± 0.34
30 | AGCGAGCAAUAUUACGCAUC | -2.51 ± 0.36 | -2.33 ± 0.33
31 | AGCGAGCAAUAUUACGCCUU | -1.94 ± 0.25 | -2.62 ± 0.48
32 | AGCGAGCAAUAUUACGCGUA | -2.95 ± 0.34 | -1.7 ± 0.18
33 | AGCGAGCAAUAUUACGGCAU | -1.45 ± 0.12 | -0.286 ± 0.14
34 | AGCGAGCAAUAUUACGUAAA | -2.53 ± 0.18 | -2.03 ± 0.31
35 | AGCGAGCAAUAUUACGUACU | -0.777 ± 0.088 | -0.674 ± 0.092
36 | AGCGAGCAAUAUUACGUUCC |  | -1.3 ± 0.24
37 | AGCUAGCAAUAUUACGAACU | -0.899 ± 0.12 | 0.179 ± 0.16
38 | AGCUAGCAAUAUUACGACAC | -2.07 ± 0.15 | -1.11 ± 0.16
39 | AGCUAGCAAUAUUACGAGCU | -2.65 ± 0.19 | -1.92 ± 0.21
40 | AGCUAGCAAUAUUACGAGUG | -0.877 ± 0.066 | -0.529 ± 0.084
41 | AGCUAGCAAUAUUACGAUAA | -2.14 ± 0.12 | -1.12 ± 0.14
42 | AGCUAGCAAUAUUACGCCUA | -0.93 ± 0.14 | -0.324 ± 0.13
43 | AGCUAGCAAUAUUACGCCUG | -1.6 ± 0.13 | -1.55 ± 0.17
44 | AGCUAGCAAUAUUACGCUAU | -2.89 ± 0.21 | -1.42 ± 0.18
45 | AGCUAGCAAUAUUACGCUGG | -3.58 ± 0.2 | -2.31 ± 0.3
46 | AGCUAGCAAUAUUACGCUUG | -3.96 ± 0.26 | -2.9 ± 0.25
47 | AGCUAGCAAUAUUACGGAAU | -1.13 ± 0.16 | -2.07 ± 0.27
48 | AGCUAGCAAUAUUACGGAGA | -2.24 ± 0.22 | -3.14 ± 0.37
49 | AGCUAGCAAUAUUACGGAUC | -1.26 ± 0.12 | -1.54 ± 0.16
50 | AGCUAGCAAUAUUACGGCAU | -0.602 ± 0.11 | -0.476 ± 0.14
51 | AGCUAGCAAUAUUACGGCCG | -0.198 ± 0.15 | 0.841 ± 0.19
52 | AGCUAGCAAUAUUACGGGCA | -0.728 ± 0.12 | -0.379 ± 0.14

Row | Sequence | self-splicing fitness (ln) (30 °C) | self-splicing fitness (ln) (37 °C)
53 | AGCUAGCAAUAUUACGGGGA | -2.22 ± 0.17 | -1.68 ± 0.14
54 | AGCUAGCAAUAUUACGGUAA | -2.34 ± 0.26 | -1.53 ± 0.26
55 | AGCUAGCAAUAUUACGGUCA | -0.312 ± 0.067 | 0.192 ± 0.083
56 | AGCUAGCAAUAUUACGGUCG | -0.942 ± 0.072 | 0.371 ± 0.1
57 | AGCUAGCAAUAUUACGUAAU | -3.29 ± 0.16 | -0.924 ± 0.11
58 | AGCUAGCAAUAUUACGUCAG | -3.09 ± 0.18 | -2.84 ± 0.22
59 | AGCUAGCAAUAUUACGUGAA | -1.58 ± 0.13 | -1.05 ± 0.15
60 | AGGAAGCAAUAUUACGAAAG | -2.44 ± 0.23 | -1.19 ± 0.35
61 | AGGAAGCAAUAUUACGACUG | -0.619 ± 0.094 | 0.0357 ± 0.1
62 | AGGAAGCAAUAUUACGAGCC | -2.25 ± 0.23 | -1.32 ± 0.27
63 | AGGAAGCAAUAUUACGAGGG | -3.63 ± 0.26 | -3.07 ± 0.29
64 | AGGAAGCAAUAUUACGCAUC |  | -1.85 ± 0.41
65 | AGGAAGCAAUAUUACGCCGU | -1.28 ± 0.24 | -0.629 ± 0.33
66 | AGGAAGCAAUAUUACGCCUU | -2.67 ± 0.2 | -0.955 ± 0.18
67 | AGGAAGCAAUAUUACGCGAA | -1.83 ± 0.12 | -1.38 ± 0.14
68 | AGGAAGCAAUAUUACGCUUG | -2.64 ± 0.14 | -0.302 ± 0.11
69 | AGGAAGCAAUAUUACGGGAC | -3.5 ± 0.46 | -1.67 ± 0.23
70 | AGGAAGCAAUAUUACGGGAU | -2.75 ± 0.19 | -2.06 ± 0.18
71 | AGGAAGCAAUAUUACGGGGU | -3.19 ± 0.21 | -3.13 ± 0.43
72 | AGGAAGCAAUAUUACGGUAA | -2.47 ± 0.2 | -2.26 ± 0.18
73 | AGGAAGCAAUAUUACGGUAU | -2.52 ± 0.28 | -0.707 ± 0.24
74 | AGGAAGCAAUAUUACGUAUU | -3.54 ± 0.24 | -0.582 ± 0.15
75 | AGGAAGCAAUAUUACGUCAA | -3.36 ± 0.22 | -3.71 ± 0.27
76 | AGGAAGCAAUAUUACGUUCG | -0.643 ± 0.071 | -0.266 ± 0.11
77 | AGGCAGCAAUAUUACGAAGU | -2.32 ± 0.1 | -0.471 ± 0.098
